Reference: patent US20210277453

Experiments:
Assay in all cases: cell_activity
[1] = test system: TlpA39 (Salmonella typhimurium); details: thermal derepression of GFP in E. coli, 31.4 to 44.6 C
[2] = test system: TlpA (Salmonella typhimurium); details: thermal derepression of GFP in E. coli, 31.4 to 44.6 C
[3] = test system: TlpA36 (Salmonella typhimurium); details: thermal derepression of GFP in E. coli, 31.4 to 44.6 C
[4] = biological target: TcI38 (bacteriophage lambda) (UniProt P03034); details: thermal derepression of GFP in E. coli, 32.4 to 40 C
[5] = biological target: TcI (cI857, A67T) (bacteriophage lambda) (UniProt P03034); details: thermal derepression of GFP in E. coli, 34.2 to 40 C; text gives >1,432
[6] = biological target: TcI42 (bacteriophage lambda) (UniProt P03034); details: thermal derepression of GFP in E. coli, 32.4 to 45.7 C

Row | Substance | activity [1] | activity [2] | activity [3] | activity [4] | activity [5] | activity [6]
1 | TlpA operator/promoter, 52 bp | 1520 fold | 355 fold | 370 fold | – | – | –
2 | tandem pR/pL operator/promoter | – | – | – | 1030 fold | 1430 fold | 1690 fold
